Target: T1, aryl hydrocarbon receptor (human (endogenous in HL-60), UniProt P35869 11-848)
T1 sequence (looked up): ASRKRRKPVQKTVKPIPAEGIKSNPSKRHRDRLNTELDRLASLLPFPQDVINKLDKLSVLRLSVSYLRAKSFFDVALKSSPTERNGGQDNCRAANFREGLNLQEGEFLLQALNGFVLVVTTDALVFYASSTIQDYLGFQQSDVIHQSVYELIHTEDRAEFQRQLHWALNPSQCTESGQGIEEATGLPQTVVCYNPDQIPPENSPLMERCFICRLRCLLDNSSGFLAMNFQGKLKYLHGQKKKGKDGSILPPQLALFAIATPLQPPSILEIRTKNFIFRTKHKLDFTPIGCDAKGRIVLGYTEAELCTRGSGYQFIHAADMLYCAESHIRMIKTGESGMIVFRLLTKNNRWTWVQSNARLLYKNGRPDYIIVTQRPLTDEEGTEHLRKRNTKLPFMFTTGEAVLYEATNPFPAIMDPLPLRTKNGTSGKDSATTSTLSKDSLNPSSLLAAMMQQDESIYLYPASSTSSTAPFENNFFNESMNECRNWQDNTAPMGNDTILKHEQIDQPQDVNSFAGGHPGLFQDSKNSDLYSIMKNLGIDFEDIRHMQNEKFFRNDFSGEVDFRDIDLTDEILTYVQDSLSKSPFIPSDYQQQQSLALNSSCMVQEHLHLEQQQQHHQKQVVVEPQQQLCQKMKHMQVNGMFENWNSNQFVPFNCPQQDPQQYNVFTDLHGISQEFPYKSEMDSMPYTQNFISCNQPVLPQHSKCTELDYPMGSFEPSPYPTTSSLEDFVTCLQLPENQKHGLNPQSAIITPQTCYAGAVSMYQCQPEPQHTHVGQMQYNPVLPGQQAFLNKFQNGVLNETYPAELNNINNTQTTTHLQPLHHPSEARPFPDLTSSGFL
Test: FRET or BRET

fold weaker FRET signal than the RARα/RXRα interaction: ~4 fold
B1: Cbl-b (natural protein, human (endogenous in HL-60), UniProt Q13191 1-982, looked up)
chain: MANSMNGRNPGGRGGNPRKGRILGIIDAIQDAVGPPKQAAADRRTVEKTWKLMDKVVRLCQNPKLQLKNSPPYILDILPDTYQHLRLILSKYDDNQKLAQLSENEYFKIYIDSLMKKSKRAIRLFKEGKERMYEEQSQDRRNLTKLSLIFSHMLAEIKAIFPNGQFQGDNFRITKADAAEFWRKFFGDKTIVPWKVFRQCLHEVHQISSGLEAMALKSTIDLTCNDYISVFEFDIFTRLFQPWGSILRNWNFLAVTHPGYMAFLTYDEVKARLQKYSTKPGSYIFRLSCTRLGQWAIGYVTGDGNILQTIPHNKPLFQALIDGSREGFYLYPDGRSYNPDLTGLCEPTPHDHIKVTQEQYELYCEMGSTFQLCKICAENDKDVKIEPCGHLMCTSCLTAWQESDGQGCPFCRCEIKGTEPIIVDPFDPRDEGSRCCSIIDPFGMPMLDLDDDDDREESLMMNRLANVRKCTDRQNSPVTSPGSSPLAQRRKPQPDPLQIPHLSLPPVPPRLDLIQKGIVRSPCGSPTGSPKSSPCMVRKQDKPLPAPPPPLRDPPPPPPERPPPIPPDNRLSRHIHHVESVPSRDPPMPLEAWCPRDVFGTNQLVGCRLLGEGSPKPGITASSNVNGRHSRVGSDPVLMRKHRRHDLPLEGAKVFSNGHLGSEEYDVPPRLSPPPPVTTLLPSIKCTGPLANSLSEKTRDPVEEDDDEYKIPSSHPVSLNSQPSHCHNVKPPVRSCDNGHCMLNGTHGPSSEKKSNIPDLSIYLKGDVFDSASDPVPLPPARPPTRDNPKHGSSLNRTPSDYDLLIPPLGEDAFDALPPSLPPPPPPARHSLIEHSKPPGSSSRPSSGQDLFLLPSDPFVDLASGQVPLPPARRLPGENVKTNRTSQDYDQLPSCSDGSQAPARPPKPRPRRTAPEIHHRKPHGPEAALENVDAKIAKLMGEGYAFEEVKRALEIAQNNVEVARSILREFAFPPPVSPRLNL
